Laboratory results reported in patent publication US20230002489A1 (SHANGHAI EPIMAB BIOTHERAPEUTICS, published 2023).
Residue numbers refer to the chain shown, from its start.

Legend:
BCMA on NCI-H929 cells [1] = molecular target: T1, BCMA on NCI-H929 cells (human, UniProt Q02223 1-184); experiment: flow cytometry on NCI-H929 cells, Mean fluorescence against antibody conc. (nM)
T1 construct: whole, on cells; also called BCMA-expressing NCI-H929 cells; BCMA-expressing target cells
T1 sequence (looked up): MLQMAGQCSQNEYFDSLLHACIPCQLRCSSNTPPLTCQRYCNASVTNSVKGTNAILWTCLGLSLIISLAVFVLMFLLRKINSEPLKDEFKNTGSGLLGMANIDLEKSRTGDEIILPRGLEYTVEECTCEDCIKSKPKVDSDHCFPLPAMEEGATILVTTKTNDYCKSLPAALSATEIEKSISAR
Description: Binding activity of the chimeric bispecific BCMA/CD3 FIT-Ig antibodies was tested via flow cytometry with a human CD3/TCR complex transfected CHO cell line (CHOK1/CD3/TCR cells) and BCMA-expressing NCI-H929 cells. Briefly, 5×10⁵ cells in FACS buffer were seeded into 96 well plates. Cells were centrifuged at 400×g for 5 minutes and supernatants were discarded. For each well, 100 μl serially diluted FIT-Ig or FIT-Fab antibodies were then added and mixed with the cells. Following incubation for 40 minutes at 4° C., plates were washed several times to remove excess antibodies. Secondary antibody (goat anti-huIgG kappa chain specific) was then added and incubated with cells at room temperature for 20 minutes. After another round of centrifugation and washing, cells were resuspended with FACS buffer for reading on a CytoFLEX Flow Cytometer. Results were analyzed and plotted with GraphPad Prism 5.0 software.

[2] = molecular target: T2, human CD3 on the surface of Jurkat cells (human, UniProt P07766 23-207; P09693 23-182; P04234 22-171); experiment: flow cytometry on Jurkat/NFAT/luc cells, MFI against antibody conc. (nM)
T2 construct: whole, on cells; Endogenous CD3 complex of the Jurkat T cell line; also called cell surface CD3 target on Jurkat cells; CD3-expressing Jurkat cells
T2 sequence (P07766 23-207, chain 1 of 3): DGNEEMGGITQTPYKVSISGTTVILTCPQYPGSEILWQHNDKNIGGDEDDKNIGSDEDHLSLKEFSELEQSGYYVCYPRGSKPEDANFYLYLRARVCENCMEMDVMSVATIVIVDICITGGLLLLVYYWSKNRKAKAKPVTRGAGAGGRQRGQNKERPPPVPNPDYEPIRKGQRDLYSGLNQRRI
T2 sequence (P09693 23-182, chain 2 of 3): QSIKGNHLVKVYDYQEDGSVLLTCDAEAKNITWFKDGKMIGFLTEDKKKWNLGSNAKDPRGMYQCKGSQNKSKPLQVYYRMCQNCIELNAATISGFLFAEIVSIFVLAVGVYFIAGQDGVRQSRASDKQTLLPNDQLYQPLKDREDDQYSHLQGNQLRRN
T2 sequence (P04234 22-171, chain 3 of 3): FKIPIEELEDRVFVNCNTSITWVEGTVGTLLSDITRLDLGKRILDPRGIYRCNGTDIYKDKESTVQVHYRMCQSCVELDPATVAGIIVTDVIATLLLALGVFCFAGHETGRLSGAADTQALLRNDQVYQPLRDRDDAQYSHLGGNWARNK

[3] = molecular target: T3, recombinant huCD3εγ/Fc fusion protein (fusion protein heterodimer) (human); experiment: SPR, Biacore T200, 25 C; antigen/Fc amine-coupled to the chip, FIT-Ig injected
T3 construct: also called huCD3/Fc dimer; heterodimeric CD3εγ/Fc fusion protein
T3 sequence (chain, as listed by the source limits assumed, chain 1 of 2): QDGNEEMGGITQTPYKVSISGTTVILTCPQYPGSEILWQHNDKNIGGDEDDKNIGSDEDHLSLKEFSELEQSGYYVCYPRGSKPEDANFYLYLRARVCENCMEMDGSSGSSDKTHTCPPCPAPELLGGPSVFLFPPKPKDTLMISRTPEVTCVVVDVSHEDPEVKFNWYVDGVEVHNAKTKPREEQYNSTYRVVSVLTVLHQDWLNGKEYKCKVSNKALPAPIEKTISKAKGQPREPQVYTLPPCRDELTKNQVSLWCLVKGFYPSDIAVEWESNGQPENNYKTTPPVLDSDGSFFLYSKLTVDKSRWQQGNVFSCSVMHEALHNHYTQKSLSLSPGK
T3 sequence (chain, as listed by the source limits assumed, chain 2 of 2): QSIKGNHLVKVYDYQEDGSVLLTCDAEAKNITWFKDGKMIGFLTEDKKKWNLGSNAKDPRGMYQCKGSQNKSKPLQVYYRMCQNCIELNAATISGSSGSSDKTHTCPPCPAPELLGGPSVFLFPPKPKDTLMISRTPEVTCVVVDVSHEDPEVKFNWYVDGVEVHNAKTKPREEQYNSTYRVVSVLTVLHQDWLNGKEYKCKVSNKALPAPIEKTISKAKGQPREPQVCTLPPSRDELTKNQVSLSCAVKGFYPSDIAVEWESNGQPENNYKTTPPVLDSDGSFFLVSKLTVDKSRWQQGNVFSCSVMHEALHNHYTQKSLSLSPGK

[4] = molecular target: T4, cynoCD3εγ/Fc fusion protein (cynomolgus monkey, UniProt Q95LI5 22-117; Q95LI7 23-113); experiment: as above
T4 construct: also called cynomolgus monkey CD3ε/γ heterodimer-Fc fusion protein; not shown: linker and Fc not described for the cynomolgus construct
T4 sequence (looked up) 1: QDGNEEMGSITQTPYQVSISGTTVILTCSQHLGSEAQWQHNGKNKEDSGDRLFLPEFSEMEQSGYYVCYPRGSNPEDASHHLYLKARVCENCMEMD
T4 sequence (looked up) 2: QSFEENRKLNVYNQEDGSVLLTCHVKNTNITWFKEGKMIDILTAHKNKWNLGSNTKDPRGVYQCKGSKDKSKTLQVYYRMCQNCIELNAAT

[5] = molecular target: T5, cynomolgus BCMA(ECD)/Fc target polypeptide (cynomolgus); experiment: as above
T5 construct: extracellular domain; also called Cyno BCMA (ECD); cynoBCMA/Fc

[6] = molecular target: T2, human CD3 on the surface of Jurkat cells; experiment: flow cytometry on Jurkat cells, Median-APC against antibody conc. (nM)
[7] = molecular target: T6, recombinant human BCMA extracellular domain/Fc dimer (human); experiment: SPR, Biacore T200, 25 C; antigen/Fc amine-coupled to the chip, FIT-Ig injected
T6 construct: also called Human BCMA (ECD); human BCMA(ECD)/Fc

[8] = molecular target: T5, cynomolgus BCMA(ECD)/Fc target …; experiment: SPR, Biacore T200, 25 C; antibody captured on anti-mouse IgG Fc, BCMA(ECD)/Fc injected
Description: (§1) Briefly, goat anti-mouse IgG Fc antibody was directly immobilized across a biosensor chip, and antibody samples were injected over reaction matrices at a flow rate of 5 μl/min. Mouse anti-BCMA IgG test antibody was injected over the immobilized surface and captured by the immobilized anti-Fc antibodies. Human and cynomolgus BCMA(ECD)/Fc target polypeptides were then injected over the captured mouse anti-BCMA IgG surface. The association and dissociation rate constants, kₒₙ (M⁻¹s⁻¹) and koff (s⁻¹), respectively, were determined with a continuous flow rate of 30 μl/min. Rate constants were derived by making kinetic binding measurements at five different concentrations of target BCMA(ECD) polypeptide. The equilibrium dissociation constant KD (M) of the reaction between antibodies and related target proteins was then calculated from the kinetic rate constants using the formula KD=koff/kₒₙ. Kinetic constants were determined by processing and fitting the data to a 1:1 binding model using Biacore analysis software.

[9] = molecular target: T6, recombinant human BCMA extracellular …; experiment: as above
Description: as §1

[10] = molecular target: T7, BCMA on HEK293F-BCMA-NF-kB-luc cells (clone 1H2) (UniProt Q02223 1-184, limits assumed); experiment: cell-based or functional assay
T7 sequence (looked up): T1 sequence (looked up)

BCMA on NCI-H929 cells [11] = molecular target: T1, BCMA on NCI-H929 cells; experiment: cell-based or functional assay
BCMA on NCI-H929 cells [12] = molecular target: T1, BCMA on NCI-H929 cells; experiment: flow cytometry on NCI-H929 cells, MFI

B1: FIT1006-6a-Fab (bispecific antibody, not shown: small tags and cut ends)
chain 1: not shown
chain 2: EVQLVQSGAEVKKPGASVKVSCKASGYTFTNYYVHWMRQAPGQGLEWIGWISPGSDNTKYNEKFKGRVTLTADTSISTAYMELSRLRSDDTAVYYCARDDYGNYYFDYWGQGTTVTVSSASTKGPSVFPLAPSSKSTSGGTAALGCLVKDYFPEPVTVSWNSGALTSGVHTFPAVLQSSGLYSLSSVVTVPSSSLGTQTYICNVNHKPSNTKVDKKVEPKSC
chain 3: DIQMTQSPASLSASVGETVTVTCGASENIYGALNWYQRKQGKSPQLLIYGATNLADGISSRFSGSGSGRQFSLKISSLLPDDVATYFCQSVLTTPWTFGGGTKLEIKRTVAAPSVFIFPPSDEQLKSGTASVVCLLNNFYPREAKVQWKVDNALQSGNSQESVTEQDSKDSTYSLSSTLTLSKADYEKHKVYACEVTHQGLSSPVTKSFNRGEC
notes: FIT-Fab made from FIT1006-6a by papain digestion (Fc removed)
Question: Does B1 bind (BCMA on NCI-H929 cells [1])?
Answer: Result: binds

B2: FIT1006-31a(D-T) (bispecific antibody, human IgG1, kappa, L234A L235A)
chain 1: not shown
chain 2: B1 chain 2 with Y27F, T28S, I48M, L70M, A72R
chain 3: DIQMTQSPSSLSASVGDRVTITCGASENIYGALNWYQQKPGKAPKLLIYGATNLATGIPSRFSGSGSGRDFTLTISSLQPEDFATYYCQSVLTTPWTFGQGTKLEIKRTVAAPSVFIFPPSDEQLKSGTASVVCLLNNFYPREAKVQWKVDNALQSGNSQESVTEQDSKDSTYSLSSTLTLSKADYEKHKVYACEVTHQGLSSPVTKSFNRGEC
Question: For B2, which “EC50 (read off the curve)” value [2] is on record?
Answer: The value was about 1 nM.

B3: FIT1006-35a(D-T) (bispecific antibody, human IgG1, kappa, L234A L235A)
chain 1: not shown
chain 2: B1 chain 2 with Y27F, T28S
chain 3: B2 chain 3
Question: Does B3 bind [2]?
Answer: Result: binds

B4: FIT1006-4a-Fab (bispecific antibody, not shown: small tags and cut ends)
chain 1: not shown
chain 2: B1 chain 2 with Y27F, T28S, I48M, L70M, A72R
chain 3: B1 chain 3
Question: Does B4 bind (BCMA on NCI-H929 cells [1])?
Answer: Result: binds

B5: FIT1006-8a-Fab (bispecific antibody, not shown: small tags and cut ends)
chain 1: not shown
chain 2: B1 chain 2 with M37V
chain 3: B1 chain 3
notes: FIT-Fab made from FIT1006-8a by papain digestion (Fc removed)
Question: Does B5 bind (BCMA on NCI-H929 cells [1])?
Answer: Result: binds

B6: FIT1006-31b (D-E) (bispecific antibody, human IgG1, kappa, L234A L235A)
chain 1: not shown
chain 2: EVQLVQSGAEVKKPGASVKVSCKASGYTFTNFWMHWVRQAPGQRLEWMGAFYPGNDDTYYNQKFKGRVTITADTSASTAYMELSSLRSEDMAVYYCARSGYYGSSDAMDYWGQGTTVTVSSASTKGPSVFPLAPSSKSTSGGTAALGCLVKDYFPEPVTVSWNSGALTSGVHTFPAVLQSSGLYSLSSVVTVPSSSLGTQTYICNVNHKPSNTKVDKKVEPKSC
chain 3: not shown
notes: Humanized BCMA/CD3 FIT-Ig, outer BCMA and inner CD3 Fab, no linkers
Question: B6 was tested. Which Kd [3] did it give?
Answer: Its Kd is 17.1 nM.

Question: And the koff [3]?
Answer: Its koff is 0.00574 s⁻¹.

Question: And the kon [3]?
Answer: Its kon is 337000 M⁻¹ s⁻¹.

Question: What about the Kd [4] of the same binder?
Answer: The Kd was 10.8 nM.

Question: What about the koff [4] of the same binder?
Answer: The koff was 0.00632 s⁻¹.

Question: And the kon [4]?
Answer: Its kon is 583000 M⁻¹ s⁻¹.

Question: And the Kd [5]?
Answer: Its Kd is 1.61 nM.

Question: And the koff [5]?
Answer: The koff was 0.000167 s⁻¹.

Question: And the kon [5]?
Answer: The kon was 104000 M⁻¹ s⁻¹.

B7: FIT1006-31b(D-T) (bispecific antibody, human IgG1, kappa, L234A L235A)
chain 1: not shown
chain 2: B6 chain 2
chain 3: not shown
notes: Humanized BCMA/CD3 FIT-Ig, outer BCMA and inner CD3 Fab
Question: How did the Kd [3] turn out when B7 was run?
Answer: Its Kd is 15.6 nM.

Question: What about the koff [3] of the same binder?
Answer: The koff was 0.00572 s⁻¹.

Question: What about the kon [3] of the same binder?
Answer: The kon was 367000 M⁻¹ s⁻¹.

Question: What about the Kd [4] of the same binder?
Answer: Its Kd is 11.4 nM.

Question: What about the koff [4] of the same binder?
Answer: The koff was 0.00621 s⁻¹.

Question: What about the kon [4] of the same binder?
Answer: The kon was 546000 M⁻¹ s⁻¹.

Question: And the Kd [5]?
Answer: The Kd was 1.02 nM.

Question: What about the koff [5] of the same binder?
Answer: Its koff is 0.000191 s⁻¹.

Question: What about the kon [5] of the same binder?
Answer: Its kon is 188000 M⁻¹ s⁻¹.

Question: And the “EC50 (read off the curve)” value [6]?
Answer: Its value is about 3 nM.

B8: FIT1006-29b(D-A) (bispecific antibody, human IgG1, kappa, L234A L235A)
chain 1: not shown
chain 2: B6 chain 2 with T30P, M48I, R67K, V68A, I70L
chain 3: not shown
notes: as for B7
Question: Which results are given for B8?
Answer: Kd [3]: 16.7 nM; koff [3]: 0.00585 s⁻¹; kon [3]: 349000 M⁻¹ s⁻¹; Kd [4]: 11.2 nM; koff [4]: 0.00607 s⁻¹; kon [4]: 541000 M⁻¹ s⁻¹; Kd [5]: 1.09 nM; koff [5]: 0.00021 s⁻¹; kon [5]: 192000 M⁻¹ s⁻¹; Kd [7]: < 0.057 nM; koff [7]: < 5e-06 s⁻¹; kon [7]: 87800 M⁻¹ s⁻¹

B9: FIT1006-35b(D-T) (bispecific antibody, human IgG1, kappa, L234A L235A)
chain 1: not shown
chain 2: B6 chain 2
chain 3: not shown
notes: as for B7
Question: Does B9 bind [6]?
Answer: Result: binds

B10: mAbBCMA-002 (antibody, V domains shown)
VH: QIQLVQSGPELKKPGETVKISCKASGYSFTNYGLNWVKQAPGKGLKWMGWINTYSGHPTYVDDFKGRFAFSLETSASTAYLQINKLKNEDTSTYFCVREKDDGYRLGLDYWGQGTSVTVSS
VL: QIVLTQSPAIMSASPGEKVTMTCSASSSVSYMYWYQQRPGSSPRLWIYDTSNLVSGVPARFSGSRSGTSYSLTISGMEAEDAATYYCLQYSGYPYTFGGGTKLEIK
notes: Mouse anti-BCMA IgG from hybridoma
Question: What does the source list for B10?
Answer: Kd [8]: 7.55 nM; koff [8]: 0.000304 s⁻¹; kon [8]: 40300 M⁻¹ s⁻¹; Kd [9]: 13.8 nM; koff [9]: 0.00292 s⁻¹; kon [9]: 212000 M⁻¹ s⁻¹; EC50 of inhibition of the BAFF-induced NF-kB luciferase signal in HEK293F-BCMA-NF-kB-luc cells (inhibition %; the curve reaches only about 30 % at 100 nM), unit from the axis [10]: 20.1 nM; EC50 of inhibition of BAFF-induced NF-kB phosphorylation in NCI-H929 cells (inhibition %), unit from the axis (BCMA on NCI-H929 cells [11]): 34.8 nM

B11: HuEM0006-01-24 (antibody, human IgG1, kappa, L234A L235A, V domains shown)
VH: EVQLVQSGAEVKKPGASVKVSCKASGFSFTNYYVHWMRQAPGQGLEWMGWISPGSDNTKYNEKFKGRVTMTRDTSISTAYMELSRLRSDDTAVYYCARDDYGNYYFDYWGQGTTVTVSS
VL: DIVMTQSPDSLAVSLGERATINCKSSQSLLNARTRKNYLAWYQQKPGQPPKLLIYWASTRESGVPDRFSGSGSGTDFTLTISSLQAEDVAVYYCKQSYILRTFGGGTKVEIKR
notes: Humanized variant of mAbCD3-001; also called HuEM1006-01-24; monospecific anti-CD3 IgG
Question: Does B11 bind (BCMA on NCI-H929 cells [12])?
Answer: Result: no binding (tested: 100 nM)

Question: What about the “EC50 (read off the curve)” value [2] of the same binder?
Answer: Its value is about 0.5 nM.

B12: huEM0006-01-27 (antibody, human IgG1, kappa, L234A L235A, V domains shown)
VH: B11 VH with M48I, M70L, R72A
VL: B11 VL
Question: Does B12 bind (BCMA on NCI-H929 cells [12])?
Answer: Result: no binding (tested: 100 nM)

Question: Does B12 bind [2]?
Answer: Result: binds
